Assay results published in the supplement of paper PMC10065799, “High-throughput profiling of sequence recognition by tyrosine kinases and SH2 domains using bacterial peptide display” (eLife, 2023).

Experiments:
[1] = system: AncSZ; experiment: phosphorylation enrichment, bacterial display (enrichment ratio); higher = better substrate or ligand; peptides without Tyr show the background
[2] = target: EPHB1 (UniProt P54762); experiment: as above
[3] = target: EPHB2 (UniProt P29323); experiment: as above
[4] = target: FGFR1 (UniProt P11362); experiment: as above
[5] = target: FGFR3 (UniProt P22607); experiment: as above
[6] = system: Fer (mouse); experiment: as above
[7] = target: Fes (UniProt P07332); experiment: as above
[8] = target: Fyn (UniProt P06241); experiment: as above
[9] = target: Hck (UniProt P08631); experiment: as above
[10] = target: Jak2 (UniProt O60674); experiment: as above
[11] = target: MERTK (UniProt Q12866); experiment: as above
[12] = system: c-Abl (mouse); experiment: as above
[13] = system: c-Src; experiment: as above
[14] = target: Grb2 SH2 (UniProt P62993); experiment: SH2 binding enrichment of the phosphorylated peptide, bacterial display (enrichment ratio); higher = better substrate or ligand; peptides without Tyr show the background
[15] = target: SHP2-C SH2; experiment: as above
[16] = target: c-Src SH2; experiment: as above
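For SH2 binding enrichment of the phosphorylated peptide, bacterial display in this document: peptide library displayed on the E. coli surface as eCPX fusions, selected cells deep-sequenced, score is each peptide's frequency after selection divided by its frequency in the input.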
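For phosphorylation enrichment, bacterial display in this document: 11-residue human phosphosite peptides and single-mutation variants displayed on the E. coli surface, counted by deep sequencing, each peptide's frequency after selection divided by its frequency in the unselected input library; frequency after pTyr selection over input frequency; kinase dosed for 20-30% of maximal phosphorylation in three min.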

Sequence of FGFR3 (P22607 whole entry, looked up): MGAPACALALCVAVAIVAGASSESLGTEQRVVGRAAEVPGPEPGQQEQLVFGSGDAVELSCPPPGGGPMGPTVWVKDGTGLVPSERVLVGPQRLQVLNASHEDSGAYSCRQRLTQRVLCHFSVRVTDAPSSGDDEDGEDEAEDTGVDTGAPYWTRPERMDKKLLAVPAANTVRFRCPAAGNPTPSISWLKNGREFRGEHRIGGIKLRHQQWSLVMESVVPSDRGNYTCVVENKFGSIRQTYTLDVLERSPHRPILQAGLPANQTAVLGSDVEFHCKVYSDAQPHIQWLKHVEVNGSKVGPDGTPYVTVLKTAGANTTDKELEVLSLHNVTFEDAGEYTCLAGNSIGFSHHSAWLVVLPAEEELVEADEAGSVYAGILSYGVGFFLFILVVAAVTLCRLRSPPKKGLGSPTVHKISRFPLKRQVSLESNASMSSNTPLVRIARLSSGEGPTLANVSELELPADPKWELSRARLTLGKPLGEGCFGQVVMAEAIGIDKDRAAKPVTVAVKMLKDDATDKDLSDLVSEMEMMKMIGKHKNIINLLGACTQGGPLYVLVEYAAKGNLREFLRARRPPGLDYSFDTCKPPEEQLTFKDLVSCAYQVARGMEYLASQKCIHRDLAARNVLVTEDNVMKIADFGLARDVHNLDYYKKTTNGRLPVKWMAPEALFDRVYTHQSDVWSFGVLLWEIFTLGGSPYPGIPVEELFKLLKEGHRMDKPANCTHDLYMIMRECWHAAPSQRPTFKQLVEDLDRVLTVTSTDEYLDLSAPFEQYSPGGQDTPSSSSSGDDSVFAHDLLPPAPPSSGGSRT
Sequence of EPHB2 (P29323 whole entry, looked up): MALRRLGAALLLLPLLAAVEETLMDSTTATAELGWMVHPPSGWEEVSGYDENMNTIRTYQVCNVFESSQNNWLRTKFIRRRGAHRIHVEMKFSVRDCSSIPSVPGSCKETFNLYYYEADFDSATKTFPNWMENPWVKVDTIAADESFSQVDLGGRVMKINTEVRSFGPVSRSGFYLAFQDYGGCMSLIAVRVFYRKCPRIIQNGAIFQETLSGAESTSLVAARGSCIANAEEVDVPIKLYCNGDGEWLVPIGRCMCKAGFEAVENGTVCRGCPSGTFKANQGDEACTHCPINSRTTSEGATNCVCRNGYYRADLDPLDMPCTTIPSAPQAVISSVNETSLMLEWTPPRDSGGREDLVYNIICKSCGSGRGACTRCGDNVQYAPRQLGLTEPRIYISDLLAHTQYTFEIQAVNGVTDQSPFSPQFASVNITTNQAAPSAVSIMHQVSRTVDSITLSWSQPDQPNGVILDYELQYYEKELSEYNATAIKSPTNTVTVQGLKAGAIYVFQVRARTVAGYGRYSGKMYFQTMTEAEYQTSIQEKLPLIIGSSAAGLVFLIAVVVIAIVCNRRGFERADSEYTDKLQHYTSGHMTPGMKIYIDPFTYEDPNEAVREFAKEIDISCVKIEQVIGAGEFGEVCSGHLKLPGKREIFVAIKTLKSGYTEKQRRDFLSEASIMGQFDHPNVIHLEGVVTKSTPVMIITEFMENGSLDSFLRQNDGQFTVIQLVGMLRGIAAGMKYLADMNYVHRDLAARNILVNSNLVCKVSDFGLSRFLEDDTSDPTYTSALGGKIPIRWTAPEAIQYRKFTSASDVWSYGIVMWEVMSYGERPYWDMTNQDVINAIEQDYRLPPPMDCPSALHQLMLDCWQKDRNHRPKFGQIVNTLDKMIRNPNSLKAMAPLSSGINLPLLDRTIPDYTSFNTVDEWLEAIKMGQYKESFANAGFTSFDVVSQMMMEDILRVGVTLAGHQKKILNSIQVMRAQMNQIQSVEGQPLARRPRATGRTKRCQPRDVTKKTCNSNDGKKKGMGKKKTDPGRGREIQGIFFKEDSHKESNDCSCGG
Sequence of MERTK (Q12866 whole entry, looked up): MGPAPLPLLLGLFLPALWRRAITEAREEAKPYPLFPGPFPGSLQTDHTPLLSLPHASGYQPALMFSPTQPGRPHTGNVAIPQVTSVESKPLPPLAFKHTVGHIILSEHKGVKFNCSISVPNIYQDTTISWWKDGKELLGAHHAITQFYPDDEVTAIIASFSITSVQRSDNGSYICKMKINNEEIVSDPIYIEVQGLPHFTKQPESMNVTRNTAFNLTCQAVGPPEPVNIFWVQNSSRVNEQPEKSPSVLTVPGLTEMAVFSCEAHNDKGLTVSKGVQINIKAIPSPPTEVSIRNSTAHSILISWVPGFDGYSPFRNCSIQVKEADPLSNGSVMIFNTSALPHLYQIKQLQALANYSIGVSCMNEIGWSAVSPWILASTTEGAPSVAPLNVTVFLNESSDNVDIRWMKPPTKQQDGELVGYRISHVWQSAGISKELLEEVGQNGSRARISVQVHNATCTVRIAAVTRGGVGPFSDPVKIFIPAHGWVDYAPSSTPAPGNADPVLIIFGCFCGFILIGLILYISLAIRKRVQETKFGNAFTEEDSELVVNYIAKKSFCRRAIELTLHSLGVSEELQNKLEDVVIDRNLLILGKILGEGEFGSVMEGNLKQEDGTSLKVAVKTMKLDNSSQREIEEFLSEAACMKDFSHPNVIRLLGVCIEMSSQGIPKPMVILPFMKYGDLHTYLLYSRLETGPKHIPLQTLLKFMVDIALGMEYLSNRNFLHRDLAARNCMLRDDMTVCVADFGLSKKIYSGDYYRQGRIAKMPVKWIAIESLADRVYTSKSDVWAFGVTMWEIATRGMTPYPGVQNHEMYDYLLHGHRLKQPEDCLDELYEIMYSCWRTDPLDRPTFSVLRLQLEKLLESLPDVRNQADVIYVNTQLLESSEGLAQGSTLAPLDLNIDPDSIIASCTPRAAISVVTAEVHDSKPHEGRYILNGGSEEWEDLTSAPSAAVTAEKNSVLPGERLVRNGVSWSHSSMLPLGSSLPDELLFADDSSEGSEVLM
Sequence of Fes (P07332 whole entry, looked up): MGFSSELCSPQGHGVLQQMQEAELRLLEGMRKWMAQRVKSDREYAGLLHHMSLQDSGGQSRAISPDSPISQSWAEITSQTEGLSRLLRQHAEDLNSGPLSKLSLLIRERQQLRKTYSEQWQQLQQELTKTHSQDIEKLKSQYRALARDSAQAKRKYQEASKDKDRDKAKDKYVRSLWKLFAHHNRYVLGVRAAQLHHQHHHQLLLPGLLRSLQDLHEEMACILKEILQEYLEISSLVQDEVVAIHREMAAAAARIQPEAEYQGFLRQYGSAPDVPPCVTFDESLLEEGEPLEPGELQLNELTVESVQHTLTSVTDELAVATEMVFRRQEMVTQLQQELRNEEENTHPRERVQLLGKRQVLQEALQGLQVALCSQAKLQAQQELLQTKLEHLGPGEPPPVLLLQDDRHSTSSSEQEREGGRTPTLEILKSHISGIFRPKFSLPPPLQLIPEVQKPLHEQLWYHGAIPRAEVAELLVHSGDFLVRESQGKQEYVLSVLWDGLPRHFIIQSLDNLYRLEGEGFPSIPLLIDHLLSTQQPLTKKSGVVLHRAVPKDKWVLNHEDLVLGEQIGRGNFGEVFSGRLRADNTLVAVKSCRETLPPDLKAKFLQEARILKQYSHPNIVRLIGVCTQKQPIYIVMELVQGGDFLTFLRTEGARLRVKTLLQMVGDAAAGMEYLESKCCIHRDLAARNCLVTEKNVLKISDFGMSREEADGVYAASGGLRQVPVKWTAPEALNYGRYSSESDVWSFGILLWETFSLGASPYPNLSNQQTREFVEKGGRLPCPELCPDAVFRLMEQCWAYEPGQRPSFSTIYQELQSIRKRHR
Sequence of EPHB1 (P54762 whole entry, looked up): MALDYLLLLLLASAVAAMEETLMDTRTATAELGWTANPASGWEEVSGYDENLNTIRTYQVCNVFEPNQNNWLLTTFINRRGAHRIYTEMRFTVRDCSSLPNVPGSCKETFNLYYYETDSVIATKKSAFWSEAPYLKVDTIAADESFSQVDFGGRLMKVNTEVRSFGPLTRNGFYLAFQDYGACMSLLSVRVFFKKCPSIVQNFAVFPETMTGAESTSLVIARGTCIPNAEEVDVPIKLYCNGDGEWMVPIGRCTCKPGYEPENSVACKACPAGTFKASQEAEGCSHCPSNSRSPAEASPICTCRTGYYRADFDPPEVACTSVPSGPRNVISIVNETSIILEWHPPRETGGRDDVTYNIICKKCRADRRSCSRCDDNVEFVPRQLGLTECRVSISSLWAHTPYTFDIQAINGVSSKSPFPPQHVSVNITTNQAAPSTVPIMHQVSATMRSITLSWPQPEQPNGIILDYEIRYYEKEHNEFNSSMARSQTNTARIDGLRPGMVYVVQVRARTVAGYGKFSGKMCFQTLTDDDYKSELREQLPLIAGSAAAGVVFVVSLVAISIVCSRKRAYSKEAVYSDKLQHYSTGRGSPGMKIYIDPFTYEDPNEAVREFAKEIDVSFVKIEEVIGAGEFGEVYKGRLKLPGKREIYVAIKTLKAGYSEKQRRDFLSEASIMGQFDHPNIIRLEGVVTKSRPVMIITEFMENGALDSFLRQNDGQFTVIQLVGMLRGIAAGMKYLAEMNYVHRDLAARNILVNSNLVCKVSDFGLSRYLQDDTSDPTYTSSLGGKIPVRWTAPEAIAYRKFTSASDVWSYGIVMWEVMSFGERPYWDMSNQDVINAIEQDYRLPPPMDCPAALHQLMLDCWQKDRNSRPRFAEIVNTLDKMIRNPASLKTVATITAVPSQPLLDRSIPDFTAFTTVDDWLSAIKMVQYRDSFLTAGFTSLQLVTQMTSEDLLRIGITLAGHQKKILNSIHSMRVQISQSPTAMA
Sequence of Grb2 SH2 (P62993 whole entry, looked up): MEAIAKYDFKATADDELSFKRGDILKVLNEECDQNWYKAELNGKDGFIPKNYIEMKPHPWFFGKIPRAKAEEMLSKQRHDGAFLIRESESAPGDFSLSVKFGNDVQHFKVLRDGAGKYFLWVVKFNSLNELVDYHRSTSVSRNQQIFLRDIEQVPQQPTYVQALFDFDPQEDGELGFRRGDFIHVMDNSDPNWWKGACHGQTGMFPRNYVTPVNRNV

Row | Sequence | phosphorylation enrichment [1] | phosphorylation enrichment [2] | phosphorylation enrichment [3] | phosphorylation enrichment [4] | phosphorylation enrichment [5] | phosphorylation enrichment [6] | phosphorylation enrichment [7] | phosphorylation enrichment [8] | phosphorylation enrichment [9] | phosphorylation enrichment [10] | phosphorylation enrichment [11] | phosphorylation enrichment [12] | phosphorylation enrichment [13] | SH2 binding enrichment [14] | SH2 binding enrichment [15] | SH2 binding enrichment [16]
1 | QGGRRYMMIVD [GAA_Y438] | 0.606 | 0.487 | 0.508 | 0.413 | 0.367 | 0.692 | 0.574 | 0.655 | 0.354 | 0.568 | 0.42 | 0.543 | 0.403 | 0.965 | 0.776 | 3.68
2 | RRNVYYYSYLL [PTEN_Y177_Y174N] | 1.16 | 1.74 | 0.707 | 6.81 | 4.21 | 0.556 | 0.796 | 1.14 | 1.13 | 2.42 | 8.2 | 0.616 | 1.79 | 0.565 | 0.641 | 0.599
3 | SVTCTYSPALY [TP53_Y126_N131Y] | 1.76 | 0.808 | 0.786 | 0.523 | 0.929 | 0.695 | 1.71 | 1.27 | 0.932 | 1.33 | 0.495 | 0.91 | 1.21 | 0.569 | 0.638 | 0.397
4 | STFVPYEIKVQ [L1CAM_Y784] | 0.906 | 0.564 | 0.512 | 0.506 | 0.629 | 0.527 | 0.996 | 0.538 | 0.475 | 0.805 | 0.338 | 0.678 | 0.393 | 0.85 | 0.726 | 0.552
5 | QGFDTYFGYLL [ARSB_Y165_R160Q] | 2.72 | 5.42 | 10.3 | 5.78 | 5.48 | 6.45 | 1.64 | 9.48 | 8.44 | 5.92 | 4.3 | 0.92 | 6.32 | 0.596 | 0.561 | 0.327
6 | FTAVGYHKHIT [NOMO1_Y1137] | 0.649 | 0.382 | 0.414 | 0.485 | 0.614 | 0.48 | 0.685 | 0.432 | 0.482 | 0.524 | 0.33 | 0.569 | 0.312 | 1.02 | 1.62 | 0.849
7 | FGSLLYKYAFK [FANCD2_Y458] | 0.839 | 0.468 | 0.391 | 0.352 | 0.684 | 0.324 | 1.04 | 0.366 | 0.379 | 0.858 | 0.433 | 0.627 | 0.392 | 0.922 | 0.731 | 0.485
8 | CDTKLYTSVPN [DNTTIP2_Y427_A430V] | 0.96 | 1.11 | 0.77 | 0.62 | 0.797 | 1.27 | 1.12 | 0.655 | 1.01 | 0.842 | 1.5 | 0.755 | 0.849 | 0.728 | 0.48 | 1.22
9 | EDDIIYTQDFT [STK11_Y362] | 1.41 | 0.869 | 0.647 | 0.652 | 0.821 | 0.655 | 1.37 | 0.796 | 0.742 | 1.29 | 0.631 | 0.957 | 1.11 | 0.767 | 0.734 | 0.554
10 | ARMTNCGLPRY [TSPAN12_Y138_Y138C] | 0.588 | 0.487 | 0.365 | 0.446 | 0.487 | 0.335 | 0.602 | 0.394 | 0.453 | 0.519 | 0.354 | 0.575 | 0.456 | 1.25 | 1 | 0.845
11 | TVLWQYTGTRP [UGT1A1_Y337_R336Q] | 0.903 | 0.539 | 0.43 | 0.366 | 0.645 | 0.419 | 1.04 | 0.398 | 0.499 | 1.01 | 0.345 | 0.436 | 0.22 | 1.01 | 0.793 | 0.455
12 | YPPTHYIRRMP [SLC4A11_Y820_V824M] | 0.717 | 0.455 | 0.412 | 0.451 | 0.493 | 0.59 | 0.597 | 0.397 | 0.339 | 0.4 | 0.447 | 0.484 | 0.381 | 0.875 | 0.765 | 0.606
13 | CTTILYNYMCN [TP53_Y234_H233L] | 1.18 | 0.958 | 0.766 | 0.94 | 0.894 | 1.2 | 1.06 | 0.745 | 1.14 | 1.16 | 2.36 | 0.615 | 1.24 | 1.78 | 1.9 | 2.4
14 | CEDMEYLESKQ [BTK_Y511_A508D] | 1.3 | 0.652 | 0.783 | 0.476 | 0.734 | 0.652 | 1.35 | 0.494 | 0.643 | 1.22 | 0.497 | 0.828 | 0.53 | 0.805 | 0.622 | 0.454
15 | TETGRYEILTE | 0.742 | 0.532 | 0.466 | 0.543 | 0.427 | 0.354 | 0.765 | 0.387 | 0.517 | 0.658 | 0.421 | 0.389 | 0.44 | 0.772 | 0.426 | 17.2
16 | VHNLDYFKQTT [FGFR3_Y647_K650Q_YF] | 0.767 | 0.56 | 0.545 | 0.743 | 0.819 | 0.48 | 0.958 | 0.652 | 0.525 | 1.31 | 0.434 | 0.602 | 0.542 | 0.795 | 0.573 | 0.449
17 | TKQLTYEEQYL [PIK3C3_Y310_D314Y] | 0.95 | 0.551 | 0.603 | 0.434 | 0.766 | 0.965 | 1.18 | 0.45 | 0.524 | 1.37 | 0.593 | 0.825 | 0.732 | 0.894 | 0.747 | 0.538
18 | RLLVVFPWTQR [HBB_Y36_Y36F] | 2.13 | 0.574 | 0.766 | 0.67 | 1.08 | 0.608 | 1.73 | 0.545 | 0.829 | 1.59 | 0.784 | 1.11 | 0.584 | 1.94 | 1.95 | 1.23
19 | ADEEYYEIIAA [FEStide_no-pY_2014] | 3.85 | 1.02 | 0.795 | 9.19 | 7.62 | 5.58 | 1.48 | 2.17 | 2.32 | 1.31 | 1.53 | 1.14 | 2.47 | 0.956 | 0.647 | 1.01
20 | EDSEFYKAFEE [CASQ2_Y179_YF] | 1.2 | 0.534 | 0.659 | 0.482 | 0.739 | 0.4 | 1.21 | 0.442 | 0.543 | 1.07 | 0.454 | 0.693 | 0.567 | 0.767 | 0.671 | 0.506
21 | DPGVSYCTREE [PDHA1_Y301_R302C] | 1.12 | 0.643 | 0.749 | 0.576 | 1.12 | 0.481 | 1.12 | 0.606 | 0.688 | 1.1 | 0.451 | 0.714 | 0.449 | 1.08 | 0.968 | 0.581
22 | CPSLPYSPVSS [CAMKK2_Y128] | 0.813 | 0.491 | 0.607 | 0.588 | 0.7 | 3.14 | 0.847 | 0.545 | 0.497 | 0.905 | 0.527 | 0.654 | 0.787 | 0.978 | 0.855 | 0.712
23 | FSALDYKIFFF [WDPCP_Y210_L205F_YF] | 1.57 | 0.675 | 0.54 | 0.6 | 0.981 | 0.541 | 1.64 | 0.416 | 0.504 | 1.69 | 0.468 | 1.13 | 0.67 | 0.731 | 0.401 | 0.449
24 | QLAPQYTYTQG [FLNA_Y1761_A1764T] | 0.828 | 0.436 | 0.413 | 0.411 | 0.768 | 0.517 | 0.766 | 0.422 | 0.533 | 0.611 | 1.17 | 0.36 | 0.526 | 0.766 | 1.03 | 1.34
25 | GNLLIYTELGK [HGD_Y166_F169L] | 1.46 | 3.98 | 2.57 | 1.29 | 1.19 | 0.986 | 1.43 | 5.68 | 5.3 | 1.21 | 4.86 | 2.29 | 4.74 | 0.756 | 0.478 | 0.381
26 | PLGKDYRKVEG [MAP1A_Y1909_A1912V] | 1.27 | 0.561 | 0.768 | 0.518 | 0.685 | 0.456 | 0.883 | 0.74 | 0.513 | 1.52 | 0.741 | 1.66 | 1.53 | 0.556 | 0.706 | 0.385
27 | PDDPSYSLVDD [PSTPIP2_Y323_N322S] | 1.6 | 0.999 | 0.8 | 0.899 | 1.08 | 0.728 | 1.53 | 0.885 | 0.679 | 1.75 | 0.563 | 1.03 | 0.91 | 1.29 | 0.724 | 3.29
28 | QGIFGYHHHMQ [UFSP2_Y287_Y290H_YF] | 0.941 | 0.639 | 0.781 | 0.892 | 0.792 | 0.779 | 1.04 | 0.395 | 0.664 | 1.07 | 0.521 | 0.652 | 0.498 | 1.16 | 0.936 | 0.945
29 | MAPQMYEFHLP [NCAPD2_Y6] | 0.795 | 4.23 | 3.16 | 0.443 | 0.719 | 19.6 | 0.766 | 0.506 | 0.624 | 0.592 | 5.35 | 0.473 | 0.655 | 0.656 | 0.582 | 0.411
